Assay results taken from paper PMC9522360, “Bidirectional sequestration between a bacterial hibernation factor and a glutamate metabolizing protein” (Proceedings of the National Academy of Sciences of the …, 2022).

Target: the molecule itself
Test: SEC; size-exclusion chromatography of recombinant YwlG

B1: recombinant YwlG (natural protein, S. aureus)
chain: KDLTMLLDELKDMSFFNKGDICLIGCSTSEVIGEKIGTVGSMEVAETIFNALDVVSKETGVTFAFQGCEHINRAITIEKSQYNPLTMEEVSVVPDVHAGGSLATYAFQHMKDPIVVEHITVPCGIDIGQTLIGMHIKHVCVPVRTSVKQVGQAIVTIATSRPKKIGGERAKYQ
modifications: C69 was oxidized in the crystals
notes: YwlG of Staphylococcus aureus, 174 a.a., locus tag SAUSA300_2068; also called S. aureus YwlG; source: E. coli, purified (described in SI Appendix)
stoichiometry N: 6
